From paper PMC4984425

B1: PDIA6 isolated from mouse liver microsomal fraction (natural protein)
chain: LYSSSDDVIELTPSNFNREVIQSDGLWLVEFYAPWCGHCQRLTPEWKKAATALKDVVKVGAVNADKHQSLGGQYGVQGFPTIKIFGANKNKPEDYQGGRTGEAIVDAALSALRQLVKDRLGGRSGGYSSGKQGRGDSSSKKDVVELTDDTFDKNVLDSEDVWMVEFYAPWCGHCKNLEPEWAAAATEVKEQTKGKVKLAAVDATVNQVLASRYGIKGFPTIKIFQKGESPVDYDGGRTRSDIVSRALDLFSDNAPPPELLEIINEDIAKKTCEEHQLCVVAVLPHILDTGAAGRNSYLEVLLKLADKYKKKMWGWLWTEAGAQYELENALGIGGFGYPAMAAINARKMKFALLKGSFSEQGINEFLRELSFGRGSTAPVGGGSFPTITPREPWDGKDGELPVEDDIDLSDVELDDLEKDEL

Tests used:
[1] = molecular target: FITC-labeled PDIA6 (mouse) (UniProt Q922R8); assay: MST
[2] = molecular target: His-tagged IRE1α ER luminal domain (IRE1-NLD); assay: SPR

Row | Molecule | Kd [1] | Kd [2]
1 | His-tagged IRE1α ER luminal domain (IRE1-NLD) (domain or fragment) | 20 nM | 
2 | B1 |  | 22 nM
